Results: patent US20110052564A1

Key:
[1] = target: cdH5-0, crossbeta H5 (A/Vietnam/1203/04) after centrifugation (influenza virus H5N1 strain A/Vietnam/1203/04); assay: ELISA epitope scanning, immobilized H5 form; scaled
[2] = target: crossbeta H5-0 (dH5-0), H5 of H5N1 strain A/Vietnam/1203/04 stock as supplied by Protein Sciences (influenza virus H5N1 strain A/Vietnam/1203/04); assay: as above
[3] = target: fdH5-0, ultrafiltrated dH5-0 (H5 of A/Vietnam/1203/04) (influenza virus H5N1 strain A/Vietnam/1203/04); assay: as above
[4] = target: misfolded dH5-I (H5 of A/Vietnam/1203/04, heat cycling at pH 7) (influenza virus H5N1 strain A/Vietnam/1203/04); assay: as above
[5] = target: misfolded dH5-II (H5 of A/Vietnam/1203/04, heat cycling at pH 2) (influenza virus H5N1 strain A/Vietnam/1203/04); assay: as above
[6] = target: misfolded dH5-III (H5 of A/Vietnam/1203/04, prolonged incubation at 5 C below the melting temperature) (influenza virus H5N1 strain A/Vietnam/1203/04); assay: as above
[7] = target: cdH5-0, crossbeta H5 (A/Vietnam/1203/04) after centrifugation (influenza virus H5N1 strain A/Vietnam/1203/04); assay: ELISA, immobilized H5 form; normalized to cdH5-0
[8] = target: fdH5-0, ultrafiltrated dH5-0 (H5 of A/Vietnam/1203/04) (influenza virus H5N1 strain A/Vietnam/1203/04); assay: ELISA, immobilized H5 form; normalized to cdH5-0
[9] = target: misfolded dH5-I (H5 of A/Vietnam/1203/04, heat cycling at pH 7) (influenza virus H5N1 strain A/Vietnam/1203/04); assay: ELISA, immobilized H5 form; normalized to cdH5-0
[10] = target: misfolded dH5-II (H5 of A/Vietnam/1203/04, heat cycling at pH 2) (influenza virus H5N1 strain A/Vietnam/1203/04); assay: ELISA, immobilized H5 form; normalized to cdH5-0
[11] = target: misfolded dH5-III (H5 of A/Vietnam/1203/04, prolonged incubation at 5 C below the melting temperature) (influenza virus H5N1 strain A/Vietnam/1203/04); assay: ELISA, immobilized H5 form; normalized to cdH5-0
[12] = target: crossbeta H5-0 (dH5-0), H5 of H5N1 strain A/Vietnam/1203/04 stock as supplied by Protein Sciences (influenza virus H5N1 strain A/Vietnam/1203/04); assay: ELISA, immobilized H5 form; normalized to cdH5-0; average of two measurements
[13] = target: non-treated H5 of H5N1 strain A/Vietnam/1203/04 (nH5), Protein Sciences (influenza virus H5N1 strain A/Vietnam/1203/04); assay: ELISA, coated nH5 overlayed with 1:2000 diluted antibody
[14] = target: cdH5-0, crossbeta H5 (A/Vietnam/1203/04) after centrifugation (influenza virus H5N1 strain A/Vietnam/1203/04); assay: ELISA, immobilized H5 form, tPA with excess epsilon-amino caproic acid
[15] = target: crossbeta H5-0 (dH5-0), H5 of H5N1 strain A/Vietnam/1203/04 stock as supplied by Protein Sciences (influenza virus H5N1 strain A/Vietnam/1203/04); assay: as above
[16] = target: fdH5-0, ultrafiltrated dH5-0 (H5 of A/Vietnam/1203/04) (influenza virus H5N1 strain A/Vietnam/1203/04); assay: as above
[17] = target: misfolded dH5-II (H5 of A/Vietnam/1203/04, heat cycling at pH 2) (influenza virus H5N1 strain A/Vietnam/1203/04); assay: as above

Row | Substance | relative affinity kD [1] [a.u.] | relative affinity kD [2] [a.u.] | relative affinity kD [3] [a.u.] | relative affinity kD [4] [a.u.] | relative affinity kD [5] [a.u.] | relative affinity kD [6] [a.u.] | other results
1 | Rockland anti-H5 A/VN/1203/04 mouse monoclonal antibody, catalogue number 200-301-978 | 100 | 85 | 107 | 115 | 31 | 112 | 
2 | fourth and fifth finger domain of fibronectin (Fn F4-5) with C-terminal FLAG-tag (from UniProt P02751 184-273) |  |  |  |  |  |  | Normalized affinity, kD (%) [7]: 100%; Normalized affinity, kD (%) [8]: 69%; Normalized affinity, kD (%) [9]: 0%; Normalized affinity, kD (%) [10]: 88%; Normalized affinity, kD (%) [11]: 6%; Normalized affinity, kD (%) [12]: 103%
3 | Rockland anti-H5 A/VN/1203/04 mouse monoclonal antibody, catalogue number 200-301-976 | 100 | 88 | 105 | 0 | 132 | 127 | 
4 | Rockland anti-H5 A/VN/1203/04 mouse monoclonal antibody, catalogue number 200-301-977 | 100 | 98 | 93 | 0 | 0 | 35 | 
5 | Rockland anti-H5 A/VN/1203/04 mouse monoclonal antibody, catalogue number 200-301-975 | 100 | 102 | 103 | 47 | 79 | 78 | ELISA signal at 1:2000 antibody dilution [13]: 1.5
6 | Rockland anti-H5 A/VN/1203/04 mouse monoclonal antibody, catalogue number 200-301-979 | 100 | 103 | 97 | 125 | 83 | 126 | 
7 | tissue type plasminogen activator (tPA; Actilyse, Boehringer-Ingelheim) (from UniProt P00750 36-562) (enzyme) |  |  |  |  |  |  | Kd [14]: 102 nM; Kd [15]: 96 nM; Kd [16]: 342 nM; Kd [17]: 19 nM
